From patent US20210115087A1 (UNIVERSITY OF ROCHESTER, published 2021)
*1 amine or outer side, *2 acyl side, *3 side chain or, on linkers, in order; H or OH if unused. Bridges are numbered along the chain shown (N, C = ends). Where no end group is shown, it is not given here. [ ]: non-standard residue; d: D form. The star is where a group is joined. O2beY = O-alkylated Tyr from O-2-bromoethyl-tyrosine, O-CH2CH2- thioether-linked to Cys, O=C([C@H](Cc1ccc(OCC[*:3])cc1)N[*:1])[*:2]; L‑5 = linker -CH2S(CH2)2SCH2-, C(CSC[*:2])SC[*:1]; Biotin = O=C1N[C@H]2[C@H](CS[C@H]2CCCCC(=O)*)N1; L‑9 = linker -CH2SCH2CH=CHCH2SCH2-; L‑6 = linker -CH2S(CH2)3SCH2-; L‑4 = linker -CH2SCH2SCH2-

Assays:
[1] = molecular target: T1, GST-Shh (recombinant GST-fused human Sonic Hedgehog) (human, UniProt Q15465 24-197); experiment: plate assay: immobilized GST-Shh, biotinylated peptide, HRP-streptavidin
T1 construct: Expressed in E. coli BL21(DE3), Ni-NTA purified, immobilized on microtiter plates; also called GST-fused Shh; not shown: glutathione-S-transferase (GST) containing a poly-histidine tag, from expression vector pET42b (Novagen); N-terminal fus
Description: (§1) Hh protein binding assay. Shh binding activity/affinity of the linear and cyclic peptides was measured using the immunoassay outlined in FIG. 4. For these experiments, GST-Shh was immobilized on 96-well microtiter plates (100 μL of 4 μM GST-Shh solution in PBS buffer), followed by blocking with bovine serum albumin. After washing, each well was incubated with 100 μL of purified FLAG-fused peptide at varying concentrations for 1 hour at room temperature. After washing, each well was added with 100 μL of 1:2500 dilution of HRP-conjugate mouse anti-FLAG polyclonal antibody (Sigma-Aldrich) for 1 hour at room temperature. After washing, 100 μL of 2.2 mM o-phenylenediamine dihydrochloride, 4.2 mM urea hydrogen peroxide, 100 mM dibasic sodium phosphate and 50 mM sodium citrate, pH 5.0 was added to each well, followed by measurement of the absorbance at 450 nm using a Tecan Infinite 1000 plate reader. Equilibrium dissociation constants (KD) were determined by fitting the dose-response curves (FIG. 5) to a 1:1 binding isotherm equation via non-linear regression using SigmaPlot.
For assessing the Shh binding affinity of the cysteine-crosslinked peptides described in Example 4, biotinylated variants of these peptides were prepared by introducing a biotin moiety to the N-terminal peptide of the peptide followed by a tetrapeptide (Gly-Ser-Gly-Ser) (SEQ ID NO: 72) spacer (i.e., peptides Biot-m5-s1 through Biot-m5-s10). The biotinylated peptides were tested in a modified variant of the Shh binding assay described in Example 1, where HRP-conjugated streptavidin is used instead of the HRP-conjugated anti-FLAG antibody.

[2] = molecular target: T1, GST-Shh (recombinant GST-fused human …); experiment: plate immunoassay: immobilized GST-Shh, FLAG-tagged peptide titrated, HRP anti-FLAG antibody, A450
Description: To measure the binding affinity of the peptides for Shh, an in vitro assay was established in which recombinant GST-fused Shh is immobilized on microtiter plates and then exposed to the FLAG-tagged peptide at varying concentrations. The Shh-bound peptide is then quantified colorimetrically (λ₄₅₀) using a horseradish peroxidase (HRP)-conjugated anti-FLAG antibody.
as §1, with “After washing, each well was added with 100 μL of 1:2500 dilution of HRP-conjugate mouse anti-FLAG polyclonal antibody (Sigma-Aldrich) for 1 hour at room temperature.” left out

[3] = molecular target: T2, GST-Dhh (recombinant GST-fused human Desert Hedgehog) (human, UniProt O43323 23-198); experiment: plate immunoassay: immobilized GST-Dhh against GST-Shh, HRP anti-FLAG antibody
T2 construct: not shown: glutathione-S-transferase (GST) containing a poly-histidine tag, from expression vector pET42b (Novagen); N-terminal fus
Description: as §1
Hedgehog analog selectivity. KD values for FLAG-HL2-m5 binding to Ihh and Dhh were determined using the colorimetric immunoassay described earlier but using GST-Ihh and GST-Dhh-coated plates, respectively. […] Mean values and standard deviations were calculated from experiments performed at least in triplicate.

[4] = molecular target: T1, GST-Shh (recombinant GST-fused human …); experiment: plate immunoassay: immobilized GST-Shh, HRP anti-FLAG antibody
Description: as §1
(§2) Next, all of the yet unmodified positions within the HL2-m3 sequence (relative to HL2-m1) were randomized by site-saturation mutagenesis. These positions correspond to residue Thr1, Leu2, Asp3, Glu6, Glu7, Met8, Asp12 of the HL2-m3 sequence. […]

[5] = molecular target: T1, GST-Shh (recombinant GST-fused human …); experiment: plate immunoassay: immobilized GST-Shh, purified FLAG-tagged peptide titrated, HRP anti-FLAG antibody
Description: as §1, §2

Binder: Biotin-GSGSTLSWCEAMDMCTD-NH2 (linker 9-15 via L‑4) [Biot-m5-s2]
- Kd [1]: 3.4 µM

Binder: MDYKDDDDKGSGSTLDDMEEMDGLSD (also called linear L2-derived peptide) [FLAG-HL2-pep]
- Kd [2]: 20 µM

Binder: Biotin-GSGSTLSWCEAMDMCTD-NH2 (linker 9-15 via L‑6) [Biot-m5-s4]
- Kd [1]: 6.4 µM

Binder: MDYKDDDDKGSGSTLSW[O2beY]EAMDMCTD-OH (bridge 18-24; not fully specified (bridges)) [FLAG-HL2-m5]
- fold lower affinity than for Shh [3]: 2 fold
- fold higher binding affinity for Shh compared to FLAG-HL2-pep [4]: ~120 fold
- Kd [5]: 0.17 µM

Binder: Biotin-GSGSTLSWCEAMDMCTD-NH2 (linker 9-15 via L‑5) [Biot-m5-s3]
- Kd [1]: 5.9 µM

B1: BIOT-M5-S7 (as labelled in the KD table of Example 5) (peptide)
peptide: GSGSTLSWCEAMDMCTD
modifications: N-terminal biotin; Cys5 and Cys11 crosslinked, by the printed MW 2121.41 with one of the isomeric linkers L-10, L-11, L-12 (drawings; probably L-11); C-terminal amide
notes: it fits the xylene-type linkers
- Kd [1]: 9.2 µM

Binder: Biotin-GSGSTLSWCEAMDMCTD-NH2 (disulfide 9-15) [Biot-m5-s1]
- Kd [1]: 1.7 µM

Binder: Biotin-GSGSTLSWCEAMDMCTD-NH2 (linker 9-15 via L‑9) [BIOT-M5-S5 (as labelled in the KD table of Example 5)]
- Kd [1]: 1.1 µM
